# T1: IL5R-His, Interleukin-5 receptor subunit alpha (Homo sapiens) aa 22-342 (Homo sapiens, UniProt Q01344 22-342)
# T1 construct: not shown: His tag as the name implies
# T1 sequence (looked up): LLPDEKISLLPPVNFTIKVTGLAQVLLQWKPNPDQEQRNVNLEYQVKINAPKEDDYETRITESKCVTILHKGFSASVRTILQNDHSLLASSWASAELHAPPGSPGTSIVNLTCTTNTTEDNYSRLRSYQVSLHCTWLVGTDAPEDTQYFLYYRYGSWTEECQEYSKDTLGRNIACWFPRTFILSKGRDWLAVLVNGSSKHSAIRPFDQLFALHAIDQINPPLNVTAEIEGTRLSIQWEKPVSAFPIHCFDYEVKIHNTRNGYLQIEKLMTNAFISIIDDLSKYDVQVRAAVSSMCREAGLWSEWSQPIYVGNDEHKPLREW
# T2: hCD38-Avi, ADP-ribosyl cyclase/cyclic ADP-ribose hydrolase 1 (Homo sapiens) aa 43-300 (Homo sapiens, UniProt P28907 43-300)
# T2 construct: range 43-300; not shown: Avi tag as the name implies
# T2 sequence (looked up): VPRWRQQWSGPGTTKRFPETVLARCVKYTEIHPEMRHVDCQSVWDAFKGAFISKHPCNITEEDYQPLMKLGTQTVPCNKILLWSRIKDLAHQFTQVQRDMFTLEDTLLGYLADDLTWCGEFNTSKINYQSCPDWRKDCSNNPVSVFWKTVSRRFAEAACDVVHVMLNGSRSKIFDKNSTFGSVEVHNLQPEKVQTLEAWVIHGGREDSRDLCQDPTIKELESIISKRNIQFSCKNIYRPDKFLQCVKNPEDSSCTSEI
# T3: hIL4R-His, Interleukin-4 receptor subunit alpha (Homo sapiens) aa 27-227 (Homo sapiens, UniProt P24394 27-227)
# T3 construct: range 27-227; not shown: His tag as the name implies
# T3 sequence (looked up): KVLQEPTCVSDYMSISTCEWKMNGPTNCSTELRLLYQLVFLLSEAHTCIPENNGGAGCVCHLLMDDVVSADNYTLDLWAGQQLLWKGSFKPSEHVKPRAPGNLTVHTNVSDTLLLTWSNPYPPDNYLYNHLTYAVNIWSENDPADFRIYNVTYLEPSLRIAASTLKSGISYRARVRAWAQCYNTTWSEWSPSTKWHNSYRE
# T4: C-Avi-His-TEVs-HSA_hBCMA, Tumor necrosis factor receptor superfamily member 17 (Homo sapiens) aa 1-54 (Homo sapiens, UniProt Q02223 1-54)
# T4 construct: range 1-54; not shown: Avi, His, TEV site and HSA parts as the name implies
# T4 sequence (looked up): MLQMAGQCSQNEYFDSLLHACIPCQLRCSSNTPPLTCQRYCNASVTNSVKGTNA
# How the values were obtained:
# [1] = target: T1, IL5R-His, Interleukin-5 receptor …; assay: BLI Octet RED 384; antibody on ProA sensor, antigen 30 ug/ml
# [2] = target: T2, hCD38-Avi, ADP-ribosyl cyclase/cyclic …; assay: as above
# [3] = target: T3, hIL4R-His, Interleukin-4 receptor …; assay: BLI Octet RED 384; antibody on ProA sensor, antigen 30 ug/ml (1154 nM); response at end of association
# Description: (§1) Experimental study of nonspecific binding of bispecific chimeric antibodies to non-target antigens was performed on Forte Bio Octert RED 384. Protein A (ProA) biosensors (ForteBio) were immersed into a solution containing antibodies at a concentration of 10 μg/ml for 150 seconds to immobilize same. The baseline was recorded in a 1×KB solution for 30 seconds. The antibody-loaded sensors were then immersed into wells containing non-target antigens at a concentration of 30 μg/ml for 150 seconds. Complex dissociation was then recorded for 30 seconds.
# (§2) The reference sensors went through all the steps as the sensors used to record analyte sensograms did, with the exception of the association step—at the association step, the sensors were immersed in a kinetic buffer solution without analyte (the reference sensor signals were measured in parallel with the recording of the main sensograms). The reference signal was subtracted from the signal received on sensors interacting with the analyte during the processing of sensograms.
# (§3) Sensograms were processed using ForteBio Octet Data Analysisn 9.0 software. To report no non-specific interaction, the recorded signal level was checked at the end of the association step (the response parameter).
# [4] = target: T5, extracellular domain of the human CSF1R protein (hCSF1R_His) (Homo sapiens, UniProt P07333 20-512); assay: BLI Octet RED 384; antibody on ProA sensor, antigen 30 ug/ml (522.5 nM); response at end of association
# T5 construct: range 20-512; Molecular weight 57.4 kDa; made in CHO cells; also called hCSF1_His; not shown: C-terminal His and FLAG tags
# Description: as §1, §2, §3
# [5] = target: T4, C-Avi-His-TEVs-HSA_hBCMA, Tumor …; assay: BLI Octet RED 384; antibody on ProA sensor, antigen 30 ug/ml
# [6] = target: T6, extracellular domain of the human PD-1 protein (hPD1ex-H6F) (Homo sapiens, UniProt Q15116 21-170); assay: BLI Octet RED 384; antibody on ProA sensor, antigen in solution; 1:1 global fit
# T6 construct: Molecular weight 20.6 kDa; made in CHO cells; also called hPDlex-H6F; not shown: C-terminal His and FLAG tags
# Description: The experiments were carried out using a kinetic buffer solution (hereinafter referred to as 1×KB) having the following formulation: 4.3 mM Na₂HPO₄; 136.9 mM NaCl, 1.5 mM KH₂PO₄; 2.7 mM KCl; the volume fraction of the added Tween 20 was 0.1%; the mass fraction of the added BSA (bovine serum albumin) was 0.1%; pH 7.4. Before the measurement, the ProA sensors were regenerated with a solution of 50 mM glycine and hydrochloric acid, pH 1.8 (5 seconds in the regenerating solution, 5 seconds in 1×KB, three repetitions). In the case of the hPD1ex-H6F and hCSF1R_His antigens, the Protein A (ProA) biosensors (ForteBio) were immersed in a solution with antibodies at a concentration of 10 μg/ml for 60 seconds to immobilize same. The baseline was recorded in 1×KB for 60 seconds. The sensors loaded with the antibody were then immersed into wells containing a solution of the target antigen (analyte) in a kinetic buffer for 90 seconds. Measurements were performed for solutions with hPDlex-H6F analyte at concentrations of 2.50 μg/ml (121.4 nM), 1.25 μg/ml (60.7 nM), 0.625 μg/ml (30.35 nM). […] Then we detected complex dissociation in 1×KB for 210 s for hPDlex-H6F, 300 s for hCSF1R_His.
# All measurements were carried out at 30° C., orbital mixing speed was 1,000 revolutions per minute.
# To obtain numerical values of kinetic constants (kₒₙ is the on/association rate constant, kdis is the dissociation rate constant, KD is the equilibrium dissociation constant or affinity constant), the resulting sensograms were processed according to the 1:1 interaction model using Global Fit (selection of one set of kon, kdis, KD constants to analyze several sensograms of different concentrations) of the ForteBio Octet Data Analysis 9.0 software.
# T6 sequence (Q15116 21-170 limits assumed, form in doubt): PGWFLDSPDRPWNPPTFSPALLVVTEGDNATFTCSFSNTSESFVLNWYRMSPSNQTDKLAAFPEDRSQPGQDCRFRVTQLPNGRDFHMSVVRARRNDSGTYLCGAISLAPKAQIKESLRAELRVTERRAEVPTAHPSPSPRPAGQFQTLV
# T5 sequence (P07333 20-512 limits assumed): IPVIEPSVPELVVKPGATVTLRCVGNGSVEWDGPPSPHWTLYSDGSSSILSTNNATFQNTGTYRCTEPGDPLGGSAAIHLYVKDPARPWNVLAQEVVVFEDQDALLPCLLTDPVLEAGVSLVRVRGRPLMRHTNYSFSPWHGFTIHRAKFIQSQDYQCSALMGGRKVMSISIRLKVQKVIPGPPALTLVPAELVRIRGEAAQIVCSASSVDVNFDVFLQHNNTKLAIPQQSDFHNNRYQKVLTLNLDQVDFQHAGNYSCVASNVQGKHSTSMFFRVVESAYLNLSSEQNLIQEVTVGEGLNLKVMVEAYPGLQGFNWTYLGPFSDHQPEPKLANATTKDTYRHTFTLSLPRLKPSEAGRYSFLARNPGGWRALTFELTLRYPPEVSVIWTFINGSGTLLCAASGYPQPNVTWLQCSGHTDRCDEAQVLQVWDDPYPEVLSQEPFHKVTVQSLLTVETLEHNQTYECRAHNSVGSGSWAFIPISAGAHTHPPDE
binding result [1],binding result [2],Signal level (nm) [3] [nm],Signal level (nm) [4] [nm],Kd [6] [nM],koff [6] [s⁻¹],kon [6] [M⁻¹ s⁻¹],Binder,binding result [5]
no binding (tested: 757.6 nM),no binding (tested: 854.7 nM),-0.002,0.548,–,–,–,"02-008, bivalent bispecific chimeric antibody that specifically binds to CD20 and CSF1R (bispecific antibody, human IgG1, kappa, L234A L235A, Produced in CHO cells) heavy 1: EVQLVESGGGLVQPGGSLRLSCAASGYTFTSYNMHWVRQAPGKGLEWVGAIYPGNGDTSYNQKFKGRFTISVDKSKNTLYLQMNSLRAEDTAVYYCARVVYYSNSYWYFDVWGQGTLVTVSSASTKGPSVFPLAPSSKSTSGGTAALGCLVKDYFPEPVTVSWNSGALTSGVHTFPAVLQSSGLYSLSSVVTVPSSSLGTQTYICNVNHKPSNTKVDKRVEPKSCDKTHTCPPCPAPEAAGGPSVFLFPPKPKDTLYITREPEVTCVVVDVSHEDPEVKFNWYVDGVEVHNAKTKPREEQYNSTYRVVSVLTVLHQDWLNGKEYKCKVSNKALPAPIEKTISKAKGQPREPQVCTLPPSRDELTKNQVSLSCAVKGFYPSDIAVEWESNGQPENNYKTTPPVLDSDGSFFLVSKLTVDKSRWQQGNVFSCSVMHEALHNHYTQKSLSLSPGK light 1: DIQMTQSPSSLSASVGDRVTITCRASSSVSYMHWYQQKPGKAPKPLIYAPSNLASGVPSRFSGSGSGTDFTLTISSLQPEDFATYYCQQWSFNPPTFGQGTKVEIKRTVAAPSVFIFPPSDEQLKSGTASVVCLLNNFYPREAKVQWKVDNALQSGNSQESVTEQDSKDSTYSLSSTLTLSKADYEKHKVYACEVTHQGLSSPVTKSFNRGEC heavy 2: not shown light 2: QAGLTQPPSVSVAPGQTARITCGGNNIGSKSVHWYQQKPGQAPVLVVYGDSDRPSGIPERFSGSNSGNTATLTISRVEAGDEADYYCQVWDISSDHVVFGGGTQLTVLQRQVKPEAWLSSGPSPGPGRLQLVCHVSGFYPKPVWVMWMRGEQEQQGTQLGDILPNANWTWYLRATLDVADGEAAGLSCRVKHSSLEGQDIILYWRGSC",–
no binding (tested: 757.6 nM),no binding (tested: 854.7 nM),0.0102,0.0103,3.49,0.000753,216000,"02-004, bivalent bispecific chimeric antibody that specifically binds to PD1 and CD20 (bispecific antibody, human IgG1, kappa, L234A L235A, Produced in CHO cells) heavy 1: QVQLVQSGGGLVQPGGSLRLSCAASGFTFSSYWMYWVRQVPGKGLEWVSAIDTGGGRTYYADSVKGRFAISRVNAKNTMYLQMNSLRAEDTAVYYCARDEGGGTGWGVLKDWPYGLDAWGQGTLVTVSSASTKGPSVFPLAPSSKSTSGGTAALGCLVKDYFPEPVTVSWNSGALTSGVHTFPAVLQSSGLYSLSSVVTVPSSSLGTQTYICNVNHKPSNTKVDKRVEPKSCDKTHTCPPCPAPEAAGGPSVFLFPPKPKDTLYITREPEVTCVVVDVSHEDPEVKFNWYVDGVEVHNAKTKPREEQYNSTYRVVSVLTVLHQDWLNGKEYKCKVSNKALPAPIEKTISKAKGQPREPQVCTLPPSRDELTKNQVSLSCAVKGFYPSDIAVEWESNGQPENNYKTTPPVLDSDGSFFLVSKLTVDKSRWQQGNVFSCSVMHEALHNHYTQKSLSLSPGK light 1: QPVLTQPLSVSVALGQTARITCGGNNIGSKNVHWYQQKPGQAPVLVIYRDSNRPSGIPERFSGSNSGNTATLTISRAQAGDEADYYCQVWDSSTAVFGTGTKLTVLQRTVAAPSVFIFPPSDEQLKSGTASVVCLLNNFYPREAKVQWKVDNALQSGNSQESVTEQDSKDSTYSLSSTLTLSKADYEKHKVYACEVTHQGLSSPVTKSFNRGEC heavy 2: not shown light 2: DIQMTQSPSSLSASVGDRVTITCRASSSVSYMHWYQQKPGKAPKPLIYAPSNLASGVPSRFSGSGSGTDFTLTISSLQPEDFATYYCQQWSFNPPTFGQGTKVEIKQRQVKPEAWLSSGPSPGPGRLQLVCHVSGFYPKPVWVMWMRGEQEQQGTQLGDILPNANWTWYLRATLDVADGEAAGLSCRVKHSSLEGQDIILYWRGSC",no binding (tested: 391.2 nM)
–,–,-0.0036,0.564,–,–,–,"02-009, bivalent bispecific chimeric antibody that specifically binds to CD20 and CSF1R (bispecific antibody, human IgG1, kappa, L234A L235A, Produced in CHO cells) heavy 1: QVQLVESGGGLVRPGGSLRLSCAASEFTFDDYAMSWVRQAPGKGLEWVSAISWNGGSTNYADSVKGRFTISRDNAKNSLYLQMNSLRAEDTALYYCASTVEVAHRRLYKYLEVWGQGTLVTVSSASTKGPSVFPLAPSSKSTSGGTAALGCLVKDYFPEPVTVSWNSGALTSGVHTFPAVLQSSGLYSLSSVVTVPSSSLGTQTYICNVNHKPSNTKVDKRVEPKSCDKTHTCPPCPAPEAAGGPSVFLFPPKPKDTLYITREPEVTCVVVDVSHEDPEVKFNWYVDGVEVHNAKTKPREEQYNSTYRVVSVLTVLHQDWLNGKEYKCKVSNKALPAPIEKTISKAKGQPREPQVCTLPPSRDELTKNQVSLSCAVKGFYPSDIAVEWESNGQPENNYKTTPPVLDSDGSFFLVSKLTVDKSRWQQGNVFSCSVMHEALHNHYTQKSLSLSPGK light 1: QAGLTQPPSVSVAPGQTARITCGGNNIGSKSVHWYQQKPGQAPVLVVYGDSDRPSGIPERFSGSNSGNTATLTISRVEAGDEADYYCQVWDISSDHVVFGGGTQLTVLRTVAAPSVFIFPPSDEQLKSGTASVVCLLNNFYPREAKVQWKVDNALQSGNSQESVTEQDSKDSTYSLSSTLTLSKADYEKHKVYACEVTHQGLSSPVTKSFNRGEC heavy 2: not shown light 2: DIQMTQSPSSLSASVGDRVTITCRASSSVSYMHWYQQKPGKAPKPLIYAPSNLASGVPSRFSGSGSGTDFTLTISSLQPEDFATYYCQQWSFNPPTFGQGTKVEIKQRQVKPEAWLSSGPSPGPGRLQLVCHVSGFYPKPVWVMWMRGEQEQQGTQLGDILPNANWTWYLRATLDVADGEAAGLSCRVKHSSLEGQDIILYWRGSC",–
